# Paper PMC11480844 (2024)
# B1: H2-Kb / Ed10 (parent complex)
# chain 1: GEQVEQRPPHLSVREGDSAFIICTYTDSATAYFYWYKQEPGAGLQLLMSVFSNVDRKEEQGLTVLLNKKDKRLSLNLTAAHPGDSAVYFCAVRGTGYQNFYFGKGTSLTVIP
# chain 2: AQTIHQWPVAEIKAVGSPLSLGCTIKGKSSPNLYWYWQATGGTLQQLFYSITVGQVESVVQLNLSASRPKDDQFILSTEKLLLSHSGFYLCAWSPGYEQYFGPGTRLTVL
# chain 3: not shown
# chain 4: IQKTPQIQVYSRHPPENGKPNILNCYVTQFHPPHIEIQMLKNGKKIPKVEMSDMSFSKDWSFYILAHTEFTPTETDTYACRVKHDSMAEPKTVYWDRDM
# chain 5: SIINFEKL
# B2: H2-Kb / Ed45 (parent complex)
# chain 1: GEQVEQRPPHLSVREGDSAVIICTYTDPNSYYFFWYKQEPGAGLQLLMKVFSSTEINEGQGFTVLLNKKDKQLSLNLTAAHPGDSAVYFCAVSGTNAYKVIFGKGTHLHVLP
# chain 2: EAAVTQSPRSKVAVTGGKVTLSCHQTNNHDYMYWYRQDTGHGLRLIHYSYVADSTEKGDIPDGYKASRPSQENFSLILELASLSQTAVYFCASARGFQDTQYFGPGTRLLVL
# chain 3: not shown
# chain 4: B1 chain 4
# chain 5: SIINFEKL
# Variants of: B1
# Assay: % of reporter cells activated (NFAT-GFP), raw
# Further: test concentration or dose not given here.
row,ratio to parent,Variant
1,0.717,chain 5 S1W
2,1.01,chain 5 S1H
3,0.0168,chain 5 E6S
4,0.824,chain 5 E6G

# Variants of: B2
# Assay: % of reporter cells activated (NFAT-GFP), raw
row,ratio to parent,Variant
1,1.43,chain 5 L8V
2,1.57,chain 5 L8G
3,1.65,chain 5 L8M
4,1.66,chain 5 L8H
5,0.947,chain 5 F5Q
6,1.28,chain 5 F5H
7,2.33,chain 5 F5W
8,0.936,chain 5 F5T
9,0.389,chain 5 F5I
10,0.495,chain 5 F5G
11,1.23,chain 5 F5N
12,1.54,chain 5 F5D
13,1.32,chain 5 I2S
14,1.32,chain 5 I2A
15,1.21,chain 5 I2F
16,2.11,chain 5 I2M
17,1.33,chain 5 I2N
18,0.125,chain 5 N4W
19,0.668,chain 5 N4H
20,0.261,chain 5 N4F
21,1.11,chain 5 N4E
22,0.0624,chain 5 N4Q
23,0.0786,chain 5 N4M
24,0.0883,chain 5 N4P
25,0.533,chain 5 N4R

row,ratio to parent,Variant
1,0.0797,chain 5 N4A
2,1.81,chain 5 I3C
3,1.57,chain 5 I3W
4,0.148,chain 5 E6V
5,0.188,chain 5 E6F
6,0.715,chain 5 E6G
7,1.12,chain 5 E6P
8,0.738,chain 5 E6Q
9,0.198,chain 5 E6Y
10,0.861,chain 5 E6K
11,0.0805,chain 5 S1M
12,0.483,chain 5 S1T
13,0.331,chain 5 S1Q
14,0.424,chain 5 S1D
15,0.775,chain 5 S1Y
16,0.0654,chain 5 S1V
17,0.177,chain 5 S1E
18,0.388,chain 5 S1G
19,0.253,chain 5 K7T
20,0.569,chain 5 K7L
21,0.418,chain 5 K7F
22,0.872,chain 5 K7G
23,1.25,chain 5 K7H
24,1.03,chain 5 K7Y
25,0.925,chain 5 K7A

# The remaining lines, values behind:
row,Variant,ratio to parent
1,chain 5 L8S,1.53
2,chain 5 L8N,1.6
3,chain 5 L8Y,1.85
4,chain 5 L8I,1.62
5,chain 5 L8D,1.52
6,chain 5 L8F,1.79
7,chain 5 L8A,1.77
8,chain 5 L8W,1.7
9,chain 5 L8K,1.87
10,chain 5 L8P,1.68
11,chain 5 L8E,1.52
12,chain 5 L8C,1.72
13,chain 5 L8R,1.77
14,chain 5 L8T,1.72
15,chain 5 F5C,1.61
16,chain 5 F5Y,1.63
17,chain 5 F5P,1
18,chain 5 F5K,1.19
19,chain 5 F5M,0.797
20,chain 5 F5V,0.617
21,chain 5 F5R,1.73
22,chain 5 F5A,0.77
23,chain 5 F5E,1.34
24,chain 5 F5S,1.09

row,Variant,ratio to parent
1,chain 5 I2R,1.63
2,chain 5 I2Q,1.91
3,chain 5 I2E,1.97
4,chain 5 I2V,1.48
5,chain 5 I2T,1.23
6,chain 5 I2W,1.68
7,chain 5 I2H,1.61
8,chain 5 I2Y,1.75
9,chain 5 I2K,1.83
10,chain 5 I2G,1.62
11,chain 5 I2D,1.34
12,chain 5 I2P,1.32
13,chain 5 I2L,2.14
14,chain 5 I2C,1.39
15,chain 5 N4D,0.241
16,chain 5 N4K,1.07
17,chain 5 N4C,0.183
18,chain 5 N4Y,0.0695
19,chain 5 N4V,0.0865
20,chain 5 N4S,0.0823
21,chain 5 N4L,1.34
22,chain 5 N4T,0.0812
23,chain 5 N4G,1.18
24,chain 5 I3V,2.18

row,Variant,ratio to parent
1,chain 5 I3T,1.86
2,chain 5 I3E,2.17
3,chain 5 I3A,2.14
4,chain 5 I3M,2.2
5,chain 5 I3G,1.87
6,chain 5 I3S,1.96
7,chain 5 I3R,2.47
8,chain 5 I3P,2.34
9,chain 5 I3F,0.726
10,chain 5 I3D,2.15
11,chain 5 I3L,1.61
12,chain 5 I3K,2.08
13,chain 5 I3H,2.02
14,chain 5 I3Q,2.26
15,chain 5 I3Y,0.537
16,chain 5 I3N,1.85
17,chain 5 E6H,0.541
18,chain 5 E6R,0.0752
19,chain 5 E6M,0.312
20,chain 5 E6C,0.258
21,chain 5 E6W,0.317
22,chain 5 E6A,1.48
23,chain 5 E6L,0.26
24,chain 5 E6D,0.542

row,Variant,ratio to parent
1,chain 5 E6I,0.155
2,chain 5 E6S,0.801
3,chain 5 E6N,1.11
4,chain 5 S1K,0.191
5,chain 5 S1R,0.648
6,chain 5 S1P,0.0861
7,chain 5 S1A,0.0786
8,chain 5 S1F,0.0609
9,chain 5 S1W,0.347
10,chain 5 S1N,0.0722
11,chain 5 S1H,0.638
12,chain 5 S1I,0.0549
13,chain 5 S1C,0.234
14,chain 5 K7P,0.891
15,chain 5 K7Q,0.193
16,chain 5 K7C,0.0944
17,chain 5 K7E,0.0609
18,chain 5 K7M,1.21
19,chain 5 K7V,0.895
20,chain 5 K7D,0.247
21,chain 5 K7R,2.06
22,chain 5 K7N,0.639
23,chain 5 K7W,1.18
24,chain 5 K7I,0.349
